In paper PMC10359491, “Identification and characterization of aptameric inhibitors of human neutrophil elastase”:

Assays:
[1] = molecular target: T1, human neutrophil elastase (HNE) (Homo sapiens, UniProt P08246 30-267); assay: enzyme inhibition; conditions: elastin-Congo red, 90% for E6 and E12, ELISA: PBS pH 7.4, 5 mM MgCl2, 10 mM KCl, 0.01% Tween 20, 20 min (temperature not stated), inhibition: 50 mM Tris pH 7.5, 150 mM NaCl, 5 mM MgCl2, 0.
[2] = molecular target: T1, human neutrophil elastase (HNE); assay: ELISA; HNE immobilized; ELISA: PBS pH 7.4, 5 mM MgCl2, 10 mM KCl, 0.01% Tween 20, 20 min (temperature not stated); inhibition: 50 mM Tris pH 7.5, 150 mM NaCl, 10 mM KCl, 5 mM MgCl2, 0.02% Tween 20, 37 C; conditions: protein: commercial; for Kd: label: biotin (ELISA)
[3] = molecular target: T1, human neutrophil elastase (HNE); assay: enzyme inhibition; DQ gelatin substrate; competitive; ELISA: PBS pH 7.4, 5 mM MgCl2, 10 mM KCl, 0.01% Tween 20, 20 min (temperature not stated); inhibition: 50 mM Tris pH 7.5, 150 mM NaCl, 10 mM KCl, 5 mM MgCl2, 0.02% Tween 20, 37 C; conditions: protein: commercial, label: biotin (ELISA)
[4] = molecular target: T1, human neutrophil elastase (HNE); assay: enzyme inhibition; elastin-Congo red, 100 nM HNE; E6/E12 values swapped in a second sentence; ELISA: PBS pH 7.4, 5 mM MgCl2, 10 mM KCl, 0.01% Tween 20, 20 min (temperature not stated); inhibition: 50 mM Tris pH 7.5, 150 mM NaCl, 10 mM KCl, 5 mM MgCl2, 0.02% Tween 20, 37 C; conditions: protein: commercial, label: biotin (ELISA)
[5] = predicted: 1 G4, 3 hairpin loops (not tested)
[6] = predicted: 2 G4, 2 hairpin loops (not tested)

T1 sequence (P08246 30-267): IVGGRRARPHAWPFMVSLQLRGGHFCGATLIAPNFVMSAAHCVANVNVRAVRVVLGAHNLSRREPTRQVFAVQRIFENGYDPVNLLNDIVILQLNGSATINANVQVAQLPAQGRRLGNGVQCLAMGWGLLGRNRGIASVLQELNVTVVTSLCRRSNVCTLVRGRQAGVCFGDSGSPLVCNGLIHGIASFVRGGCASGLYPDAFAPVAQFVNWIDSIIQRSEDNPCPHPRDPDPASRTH

dsDNA 24-mer
binding signal [1]: 10 % inhibition

B1: NC nonspecific ssDNA (ssDNA)
DNA: CATGCTTCCCCAGGGAGATGAACCCTTTGGGAAACCCTTTGGGAAACCCTTTGGGGAGGAACATGCGTCGCAAAC
binding result ([2]; label: 5' biotin (ELISA)): no binding

B2: aptamer E6 (ssDNA)
DNA: CATGCTTCCCCAGGGAGATGAGGACGGGCGTGGGGATGGGTATGGTGCAACTCCCGAGGAACATGCGTCGCAAAC
Kd [2, 5]: 20.5 nM
Ki [3, 5]: 52 ± 6 nM
IC50 [4, 5]: 173 nM

B3: aptamer E12 (ssDNA)
DNA: CATGCTTCCCCAGGGAGATGGGCGTGGGGGTTGGGTATGGTGCTTGAGGGGCCTGGAGGAACATGCGTCGCAAAC
Kd [2, 6]: 13.9 nM
Ki [3, 6]: 22 ± 1 nM
IC50 [4, 6]: 178 nM
